Laboratory results taken from article PMC3846833.

Biological target: recombinant myostatin (R&D Systems) (UniProt O14793)
Test: SPR; Biacore 3000, CM5 chip, about 2000 RU of ligand (ActRIIB-Fc or myostatin) amine-coupled by EDC/NHS; analyte 6.25-100 nM in HBS-EP (0.01 M HEPES pH 7.4, 0.15 M NaCl, 3 mM EDTA, 0.005% P20); 21°C, 30 µL/min; association 180 s, dissociation 300 s

Chain of UniProt O14793 (O14793 267-375): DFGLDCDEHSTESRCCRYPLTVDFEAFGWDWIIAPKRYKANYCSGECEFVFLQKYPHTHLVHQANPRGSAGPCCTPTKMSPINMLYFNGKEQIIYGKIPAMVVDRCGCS

Kd: 0.0979 nM | koff: 4.32e-06 s⁻¹ | kon: 44100 M⁻¹ s⁻¹
Substance: recombinant putative mature sheep myostatin splice variant (rMSV, aa 275-321) (domain or fragment)
